# According to FireProtDB (doi:10.1111/febs.12694):
# Several values for one entry are separate records, joined by “and”; a condition that tells them apart may be missing. Identical values can stand only once.
# B1: Bacteriorhodopsin, P02945 (parent)
# chain: MLELLPTAVEGVSQAQITGRPEWIWLALGTALMGLGTLYFLVKGMGVSDPDAKKFYAITTLVPAIAFTMYLSMLLGYGLTMVPFGGEQNPIYWARYADWLFTTPLLLLDLALLVDADQGTILALVGADGIMIGTGLVGALTKVYSYRFVWWAISTAAMLYILYVLFFGFTSKAESMRPEVASTFKVLRNVTVVLWSAYPVVWLIGSEGAGIVPLNIETLLFMVLDVSAKVGFGLILLRSRAIFGEAEAPEPSAGDGAAATSD
# Variants of: B1
# Details: Halobacterium salinarum (strain ATCC 700922 / JCM 11081 / NRC-1); pH 3.5; Thermal; DSC; structure 1C3W; whole UniProt chain shown
Variant,Tm [°C],"change of melting temperature, mutant - wild type (higher = more stable) [°C]"
E22Q E207Q E217Q,69.4,-7.2

# Same assay, conditions: Halobacterium salinarum (strain ATCC 700922 / JCM 11081 / NRC-1); pH 4; Thermal; UV spectroscopy; transition: 2; structure 1C3W; whole UniProt chain shown
Variant,Tm,"change of melting temperature, mutant - wild type (higher = more stable) [°C]"
E22Q E207Q E217Q,60.1 °C and 64.1 °C,-5.1

# Same assay, conditions: Halobacterium salinarum (strain ATCC 700922 / JCM 11081 / NRC-1); pH 7; Thermal; DSC; structure 1C3W; whole UniProt chain shown
Variant,Tm [°C],"change of melting temperature, mutant - wild type (higher = more stable) [°C]"
E22Q E207Q E217Q,93.3,-4.9

# Same assay, conditions: Halobacterium salinarum (strain ATCC 700922 / JCM 11081 / NRC-1); pH 7; Thermal; UV spectroscopy; transition: 2; structure 1C3W; whole UniProt chain shown
row,Variant,"change of melting temperature, mutant - wild type (higher = more stable) [°C]"
1,E22Q E207Q E217Q,-0.4

# Same assay, conditions: Halobacterium salinarum (strain ATCC 700922 / JCM 11081 / NRC-1); pH 9; Thermal; DSC; structure 1C3W; whole UniProt chain shown
Variant,Tm [°C],"change of melting temperature, mutant - wild type (higher = more stable) [°C]"
E22Q E207Q E217Q,82.6,-11.9

# Same assay, conditions: Halobacterium salinarum (strain ATCC 700922 / JCM 11081 / NRC-1); pH 9.5; Thermal; UV spectroscopy; glycine buffer; transition: 2; structure 1C3W; whole UniProt chain shown
row,Variant,"change of melting temperature, mutant - wild type (higher = more stable) [°C]"
1,E22Q E207Q E217Q,0
